Measurements published in IntAct's records for PubMed 22580824.

B1: ADP-ribosylation factor 6 (Homo sapiens), P62330 (parent)
chain: MGKVLSKIFGNKEMRILMLGLDAAGKTTILYKLKLGQSVTTIPTVGFNVETVTYKNVKFNVWDVGGQDKIRPLWRHYYTGTQGLIFVVDCADRDRIDEARQELHRIINDREMRDAIILIFANKQDLPDAMKPHEIQEKLGLTRIRDRNWYVQPSCATSGDGLYEGLTWLTSNYKS
partner: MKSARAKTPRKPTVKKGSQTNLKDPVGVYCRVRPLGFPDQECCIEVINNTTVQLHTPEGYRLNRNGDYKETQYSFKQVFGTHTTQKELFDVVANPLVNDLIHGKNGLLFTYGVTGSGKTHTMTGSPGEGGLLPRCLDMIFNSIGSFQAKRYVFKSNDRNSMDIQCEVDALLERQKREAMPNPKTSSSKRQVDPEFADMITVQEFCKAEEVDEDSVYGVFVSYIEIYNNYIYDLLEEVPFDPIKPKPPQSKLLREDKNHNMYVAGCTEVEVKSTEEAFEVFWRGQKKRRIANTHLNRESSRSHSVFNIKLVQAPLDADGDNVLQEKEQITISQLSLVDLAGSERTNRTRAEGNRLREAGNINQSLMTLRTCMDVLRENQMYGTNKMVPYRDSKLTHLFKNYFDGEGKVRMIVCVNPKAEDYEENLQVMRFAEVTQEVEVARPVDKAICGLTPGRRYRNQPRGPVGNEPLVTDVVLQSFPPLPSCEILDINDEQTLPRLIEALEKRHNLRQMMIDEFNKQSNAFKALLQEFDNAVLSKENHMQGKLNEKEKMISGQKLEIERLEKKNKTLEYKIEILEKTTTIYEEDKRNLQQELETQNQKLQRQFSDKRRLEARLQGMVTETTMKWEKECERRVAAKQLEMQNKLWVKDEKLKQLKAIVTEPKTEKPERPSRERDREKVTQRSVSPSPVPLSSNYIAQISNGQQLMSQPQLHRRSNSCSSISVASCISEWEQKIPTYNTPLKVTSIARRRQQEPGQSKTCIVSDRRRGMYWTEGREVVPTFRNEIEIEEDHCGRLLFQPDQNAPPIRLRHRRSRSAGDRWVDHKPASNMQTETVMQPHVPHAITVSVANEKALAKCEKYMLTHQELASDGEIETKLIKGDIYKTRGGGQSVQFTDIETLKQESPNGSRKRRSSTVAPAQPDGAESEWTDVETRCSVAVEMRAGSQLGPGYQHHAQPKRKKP
B2: Kinesin-like protein KIF23 (Homo sapiens), Q02241 (parent)
chain: B1 partner
partner: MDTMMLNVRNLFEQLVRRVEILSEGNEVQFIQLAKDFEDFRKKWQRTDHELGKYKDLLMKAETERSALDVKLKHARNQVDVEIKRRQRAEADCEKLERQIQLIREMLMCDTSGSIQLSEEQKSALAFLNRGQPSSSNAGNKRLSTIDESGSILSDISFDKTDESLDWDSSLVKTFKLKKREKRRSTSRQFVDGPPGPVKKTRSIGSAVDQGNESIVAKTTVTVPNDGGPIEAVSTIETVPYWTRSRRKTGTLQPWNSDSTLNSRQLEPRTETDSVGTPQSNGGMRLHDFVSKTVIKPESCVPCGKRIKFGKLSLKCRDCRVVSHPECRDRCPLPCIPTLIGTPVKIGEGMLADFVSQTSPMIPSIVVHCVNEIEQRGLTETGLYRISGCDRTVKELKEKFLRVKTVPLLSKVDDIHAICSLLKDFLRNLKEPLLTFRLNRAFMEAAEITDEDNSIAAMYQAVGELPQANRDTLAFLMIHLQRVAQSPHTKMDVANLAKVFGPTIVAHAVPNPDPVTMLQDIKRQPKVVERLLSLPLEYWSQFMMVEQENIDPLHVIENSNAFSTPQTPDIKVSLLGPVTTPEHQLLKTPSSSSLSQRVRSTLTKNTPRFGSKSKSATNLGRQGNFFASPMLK
B3: Kinesin-like protein KIF23 (Homo sapiens), Q02241 (parent)
chain: B1 partner

Variants of: B1
Settings: with kif23_human KIF23, Q02241

effect of a mutation on the interaction	Variant
disrupting interaction	T27N

Variants of: B2
Settings: with rgap1_human RACGAP1, Q9H0H5

effect of a mutation on the interaction	Variant
increasing interaction	V890A

Variants of: B2
Settings: with rgap1_human RACGAP1, Q9H0H5
Remark: another data set of the same source

effect of a mutation on the interaction	Variant
increasing interaction	S814A

Variants of: B3
Settings: with arf6_human ARF6, P62330

effect of a mutation on the interaction	Variant
disrupting interaction	F892A

Variants of: B3
Settings: with arf6_human ARF6, P62330
Remark: another data set of the same source

effect of a mutation on the interaction	Variant
disrupting interaction	L794A

Variants of: B3
Settings: with arf6_human ARF6, P62330
Remark: another data set of the same source

effect of a mutation on the interaction	Variant
disrupting interaction	L860A

Variants of: B3
Settings: with arf6_human ARF6, P62330
Remark: another data set of the same source

effect of a mutation on the interaction	Variant
decreasing interaction	L860A

Variants of: B3
Settings: with arf6_human ARF6, P62330
Remark: another data set of the same source

effect of a mutation on the interaction	Variant
disrupting interaction	E864A

Variants of: B3
Settings: with arf6_human ARF6, P62330
Remark: another data set of the same source

effect of a mutation on the interaction	Variant
disrupting interaction	V890A

Variants of: B3
Settings: with arf6_human ARF6, P62330
Remark: another data set of the same source

effect of a mutation on the interaction	Variant
decreasing interaction	V890A

Variants of: B3
Settings: with arf6_human ARF6, P62330
Remark: another data set of the same source

effect of a mutation on the interaction	Variant
disrupting interaction	Q863A

Variants of: B3
Settings: with arf6_human ARF6, P62330
Remark: another data set of the same source

effect of a mutation on the interaction	Variant
decreasing interaction	Q863A

Variants of: B3
Settings: with arf6_human ARF6, P62330
Remark: another data set of the same source

effect of a mutation on the interaction	Variant
disrupting interaction	T873A

Variants of: B3
Settings: with arf6_human ARF6, P62330
Remark: another data set of the same source

effect of a mutation on the interaction	Variant
decreasing interaction	T873A

Variants of: B3
Settings: with arf6_human ARF6, P62330
Remark: another data set of the same source

effect of a mutation on the interaction	Variant
disrupting interaction	Y858A

Variants of: B3
Settings: with arf6_human ARF6, P62330
Remark: another data set of the same source

effect of a mutation on the interaction	Variant
disrupting interaction	T779A

Variants of: B3
Settings: with arf6_human ARF6, P62330
Remark: another data set of the same source

effect of a mutation on the interaction	Variant
decreasing interaction	T779A

Variants of: B3
Settings: with arf6_human ARF6, P62330
Remark: another data set of the same source

effect of a mutation on the interaction	Variant
disrupting interaction	E896A

Variants of: B3
Settings: with arf6_human ARF6, P62330
Remark: another data set of the same source

effect of a mutation on the interaction	Variant
disrupting interaction	K877A

Variants of: B3
Settings: with arf6_human ARF6, P62330
Remark: another data set of the same source

effect of a mutation on the interaction	Variant
decreasing interaction	K877A
